Experimental data: paper PMC6609335

Key:
[1] = target: Andes virus (ANDV) envelope glycoprotein Gc, wild type (Andes virus) (UniProt Q9E006); assay: native gel or EMSA
[2] = target: Andes virus (ANDV) envelope glycoprotein Gc, wild type (Andes virus) (UniProt Q9E006); assay: sucrose gradient sedimentation

Andes virus (ANDV) envelope glycoprotein Gc, wild type (from UniProt Q9E006) (natural protein)
stoichiometry N [1]: 3
stoichiometry N [2]: 3
